Molecular target: T1, Recombinant FGF-20 (rat, UniProt Q9EST9 1-212)
T1 construct: Immobilised on a CM5 sensor chip in the assay; also called recombinant rat FGF-20; rFGF-20
Experiment: SPR (BIACORE 2000), FGF-20 immobilised on CM5, receptor extracellular domain as analyte

T1 sequence (Q9EST9 other isoform, or with tags, fused parts or gaps limits assumed): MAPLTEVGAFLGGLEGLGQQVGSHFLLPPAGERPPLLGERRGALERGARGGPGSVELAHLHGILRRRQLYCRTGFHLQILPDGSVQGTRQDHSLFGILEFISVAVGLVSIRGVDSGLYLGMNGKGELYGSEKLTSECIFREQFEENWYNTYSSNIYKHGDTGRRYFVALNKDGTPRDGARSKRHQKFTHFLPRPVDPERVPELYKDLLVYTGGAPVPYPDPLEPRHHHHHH

B1: recombinant extracellular domain of FGFR-3c (receptor)
chain: ESLGTEQRVVGRAAEVPGPEPGQQEQLVFGSGDAVELSCPPPGGGPMGPTVWVKDGTGLVPSERVLVGPQRLQVLNASHEDSGAYSCRQRLTQRVLCHFSVRVTDAPSSGDDEDGEDEAEDTGVDTGAPYWTRPERMDKKLLAVPAANTVRFRCPAAGNPTPSISWLKNGREFRGEHRIGGIKLRHQQWSLVMESVVPSDRGNYTCVVENKFGSIRQTYTLDVLERSPHRPILQAGLPANQTAVLGSDVEFHCKVYSDAQPHIQWLKHVEVNGSKVGPDGTPYVTVLKTAGANTTDKELEVLSLHNVTFEDAGEYTCLAGNSIGFSHHSAWLVVLPAEEELVEADEAGSVYAG
For B1, the Kd was 217 nM, the koff was 0.0247 s⁻¹ and the kon was 115000 M⁻¹ s⁻¹.
